Measurements published in the supplement of paper PMC10899765.

Assays:
Conditions in all cases: 20 nM; 72 h
MCF10A [1] = test: percent viability (nuclei count relative to siNT); higher = more viable cells
Description: (§1)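 After 72 h, cells were fixed and stained with Hoechst and anti-fibrillarin, and nucleoli per nucleus were counted with CellProfiler. Values are plate-adjusted percent effect for the one-nucleolus and 5+ nucleoli phenotypes, normalised to siNT (0%) and to the positive controls siNOL11 or siKIF11 (100%), as the mean of biological triplicates. Percent viability is the nuclei count relative to siNT.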

MCF10A [2] = test: 5+ nucleoli phenotype percent effect (relative to siNT 0% and siKIF11 100%); higher = more cells with five or more nucleoli
Description: as §1

MCF10A [3] = test: one-nucleolus phenotype percent effect (relative to siNT 0% and siNOL11 100%); higher = more cells with one nucleolus (ribosome biogenesis inhibition)
Description: as §1

GAUUUCAGUGGAGUGAAGUUC [hsa-miR-205-3p]
percent viability (MCF10A [1]): 133% | 5+ nucleoli phenotype percent effect (MCF10A [2]): 51.7% | one-nucleolus phenotype percent effect (MCF10A [3]): -30.2%

UGGUGGUUUACAAAGUAAUUCA [hsa-miR-876-3p]
percent viability (MCF10A [1]): 10.9% | 5+ nucleoli phenotype percent effect (MCF10A [2]): -33.4% | one-nucleolus phenotype percent effect (MCF10A [3]): 57.7%

UAUGGCUUUUUAUUCCUAUGUGA [hsa-miR-135a-5p]
percent viability (MCF10A [1]): 69% | 5+ nucleoli phenotype percent effect (MCF10A [2]): -18.7% | one-nucleolus phenotype percent effect (MCF10A [3]): -3.65%

UGGUUCUCUUGUGGCUCAAGCGU [hsa-miR-597-3p]
percent viability (MCF10A [1]): 22.4% | 5+ nucleoli phenotype percent effect (MCF10A [2]): -23% | one-nucleolus phenotype percent effect (MCF10A [3]): 44.1%

ACCGCCUGCCCAGUGA [hsa-miR-4485-5p]
percent viability (MCF10A [1]): 70.4% | 5+ nucleoli phenotype percent effect (MCF10A [2]): 24.1% | one-nucleolus phenotype percent effect (MCF10A [3]): -16.3%

CGCCUGCCCAGCCCUCCUGCU [hsa-miR-4763-5p]
percent viability (MCF10A [1]): 38.1% | 5+ nucleoli phenotype percent effect (MCF10A [2]): -11.3% | one-nucleolus phenotype percent effect (MCF10A [3]): 11.6%

AAACCGUUACCAUUACUGAGUU [hsa-miR-451a]
percent viability (MCF10A [1]): 69.8% | 5+ nucleoli phenotype percent effect (MCF10A [2]): 12.9% | one-nucleolus phenotype percent effect (MCF10A [3]): -5.64%

ACUGGACUUGGAGCCAGAAG [hsa-miR-378f]
percent viability (MCF10A [1]): 45.3% | 5+ nucleoli phenotype percent effect (MCF10A [2]): 33.7% | one-nucleolus phenotype percent effect (MCF10A [3]): -12.4%

ACAAAGUACAGCAUUAGCCUUAG [hsa-miR-3973]
percent viability (MCF10A [1]): 29.3% | 5+ nucleoli phenotype percent effect (MCF10A [2]): 0.19% | one-nucleolus phenotype percent effect (MCF10A [3]): -6.17%

UCAGCAGGCAGGCUGGUGCAGC [hsa-miR-3619-5p]
percent viability (MCF10A [1]): 27.1% | 5+ nucleoli phenotype percent effect (MCF10A [2]): -36.5% | one-nucleolus phenotype percent effect (MCF10A [3]): 56.3%

CACUGUGUCCUUUCUGCGUAG [hsa-miR-892a]
percent viability (MCF10A [1]): 57.7% | 5+ nucleoli phenotype percent effect (MCF10A [2]): -27.3% | one-nucleolus phenotype percent effect (MCF10A [3]): 31.9%

CUAUGGCGAGACUGGCAUGUACUC [hsa-miR-8074]
percent viability (MCF10A [1]): 110% | 5+ nucleoli phenotype percent effect (MCF10A [2]): 26.4% | one-nucleolus phenotype percent effect (MCF10A [3]): -12.8%

CUAUAUAUCAAACAUAUUCCU [hsa-miR-190a-3p]
percent viability (MCF10A [1]): 67.4% | 5+ nucleoli phenotype percent effect (MCF10A [2]): 35.7% | one-nucleolus phenotype percent effect (MCF10A [3]): -19.5%

UUUCCAUAGGUGAUGAGUCAC [hsa-miR-587]
percent viability (MCF10A [1]): 86.7% | 5+ nucleoli phenotype percent effect (MCF10A [2]): 39.4% | one-nucleolus phenotype percent effect (MCF10A [3]): -21.6%

CUUCCGCCCCGCCGGGCGUCG [hsa-miR-718]
percent viability (MCF10A [1]): 69% | 5+ nucleoli phenotype percent effect (MCF10A [2]): 30.6% | one-nucleolus phenotype percent effect (MCF10A [3]): -13.8%

AGCAGGGCUGGGGAUUGCA [hsa-miR-6132]
percent viability (MCF10A [1]): 20.5% | 5+ nucleoli phenotype percent effect (MCF10A [2]): -31% | one-nucleolus phenotype percent effect (MCF10A [3]): 57.1%

UGCCCUUCUCUCCUCCUGCCU [hsa-miR-6886-3p]
percent viability (MCF10A [1]): 35.2% | 5+ nucleoli phenotype percent effect (MCF10A [2]): -2.46% | one-nucleolus phenotype percent effect (MCF10A [3]): -6.37%

GGGCUAGGGCCUGCUGCCCCC [hsa-miR-6069]
percent viability (MCF10A [1]): 54.3% | 5+ nucleoli phenotype percent effect (MCF10A [2]): 21.6% | one-nucleolus phenotype percent effect (MCF10A [3]): -4.55%

AUCAGGGCUUGUGGAAUGGGAAG [hsa-miR-3127-5p]
percent viability (MCF10A [1]): 18.4% | 5+ nucleoli phenotype percent effect (MCF10A [2]): -23.4% | one-nucleolus phenotype percent effect (MCF10A [3]): 49.5%

AGCUGGUGUUGUGAAUCAGGCCG [hsa-miR-138-5p]
percent viability (MCF10A [1]): 21.6% | 5+ nucleoli phenotype percent effect (MCF10A [2]): -24.6% | one-nucleolus phenotype percent effect (MCF10A [3]): 13.5%

AGGGGGCGCAGUCACUGACGUG [hsa-miR-4697-5p]
percent viability (MCF10A [1]): 18.2% | 5+ nucleoli phenotype percent effect (MCF10A [2]): -0.0636% | one-nucleolus phenotype percent effect (MCF10A [3]): 5.16%

CAACAAAUCCCAGUCUACCUAA [hsa-miR-7-2-3p]
percent viability (MCF10A [1]): 104% | 5+ nucleoli phenotype percent effect (MCF10A [2]): 4.35% | one-nucleolus phenotype percent effect (MCF10A [3]): -10.8%

AACUCCAAACACUCAAAACUCA [hsa-miR-3145-5p]
percent viability (MCF10A [1]): 119% | 5+ nucleoli phenotype percent effect (MCF10A [2]): 43.6% | one-nucleolus phenotype percent effect (MCF10A [3]): -24.6%

AAUCCUUGGAACCUAGGUGUGAGU [hsa-miR-362-5p]
percent viability (MCF10A [1]): 36.6% | 5+ nucleoli phenotype percent effect (MCF10A [2]): -6.28% | one-nucleolus phenotype percent effect (MCF10A [3]): -1.23%

AUAUUAUUAGCCACUUCUGGAU [hsa-miR-4795-3p]
percent viability (MCF10A [1]): 27.9% | 5+ nucleoli phenotype percent effect (MCF10A [2]): -25.8% | one-nucleolus phenotype percent effect (MCF10A [3]): 3.49%

AUUCUCUCUGGAUCCCAUGGAU [hsa-miR-4768-5p]
percent viability (MCF10A [1]): 22.6% | 5+ nucleoli phenotype percent effect (MCF10A [2]): -2.49% | one-nucleolus phenotype percent effect (MCF10A [3]): -12.2%

CCACCUCCCCUGCAAACGUCCA [hsa-miR-1306-5p]
percent viability (MCF10A [1]): 35% | 5+ nucleoli phenotype percent effect (MCF10A [2]): 33% | one-nucleolus phenotype percent effect (MCF10A [3]): -25.8%

ACCUGCCAGCACCUCCCUGCAG [hsa-miR-4722-3p]
percent viability (MCF10A [1]): 53.9% | 5+ nucleoli phenotype percent effect (MCF10A [2]): -32.2% | one-nucleolus phenotype percent effect (MCF10A [3]): 10.5%

GGAGGCCGGGGUGGGGCGGGGCGG [hsa-miR-6089]
percent viability (MCF10A [1]): 153% | 5+ nucleoli phenotype percent effect (MCF10A [2]): 53% | one-nucleolus phenotype percent effect (MCF10A [3]): -25.7%

CAUACAAUCUGACAUGUAUUU [hsa-miR-4666a-3p]
percent viability (MCF10A [1]): 66.1% | 5+ nucleoli phenotype percent effect (MCF10A [2]): 15.8% | one-nucleolus phenotype percent effect (MCF10A [3]): -4.04%

UGAGGUAGUAGGUUGUAUAGUU [hsa-let-7a-5p]
percent viability (MCF10A [1]): 29.1% | 5+ nucleoli phenotype percent effect (MCF10A [2]): 61.1% | one-nucleolus phenotype percent effect (MCF10A [3]): -24.4%

UAGGUAGUUUCCUGUUGUUGGG [hsa-miR-196b-5p]
percent viability (MCF10A [1]): 41.4% | 5+ nucleoli phenotype percent effect (MCF10A [2]): 54.4% | one-nucleolus phenotype percent effect (MCF10A [3]): -8.68%

ACCCGCCCGUCUCCCCACAG [hsa-miR-7108-3p]
percent viability (MCF10A [1]): 110% | 5+ nucleoli phenotype percent effect (MCF10A [2]): 28.2% | one-nucleolus phenotype percent effect (MCF10A [3]): -20.7%

CCAAUAUUACUGUGCUGCUUUA [hsa-miR-16-2-3p]
percent viability (MCF10A [1]): 121% | 5+ nucleoli phenotype percent effect (MCF10A [2]): 40.6% | one-nucleolus phenotype percent effect (MCF10A [3]): -17.8%

AACUCGUGUUCAAAGCCUUUAG [hsa-miR-4636]
percent viability (MCF10A [1]): 53.6% | 5+ nucleoli phenotype percent effect (MCF10A [2]): 12.8% | one-nucleolus phenotype percent effect (MCF10A [3]): 8.89%

ACAUUUUCCAGCCCAUUCA [hsa-miR-1250-3p]
percent viability (MCF10A [1]): 12.3% | 5+ nucleoli phenotype percent effect (MCF10A [2]): -18.3% | one-nucleolus phenotype percent effect (MCF10A [3]): 53.7%

ACAGCACUGCCUGGUCAGA [hsa-miR-383-3p]
percent viability (MCF10A [1]): 54.9% | 5+ nucleoli phenotype percent effect (MCF10A [2]): -19% | one-nucleolus phenotype percent effect (MCF10A [3]): -8.43%

UCUUCACCUGCCUCUGCCUGCA [hsa-miR-6754-3p]
percent viability (MCF10A [1]): 71.5% | 5+ nucleoli phenotype percent effect (MCF10A [2]): 15.2% | one-nucleolus phenotype percent effect (MCF10A [3]): -24.7%

UAGCUUAUCAGACUGAUGUUGA [hsa-miR-21-5p]
percent viability (MCF10A [1]): 121% | 5+ nucleoli phenotype percent effect (MCF10A [2]): 11.7% | one-nucleolus phenotype percent effect (MCF10A [3]): -9.39%

CUCUAGAGGGAAGCACUUUCUG [hsa-miR-526a]
percent viability (MCF10A [1]): 39.9% | 5+ nucleoli phenotype percent effect (MCF10A [2]): -7.42% | one-nucleolus phenotype percent effect (MCF10A [3]): 0.562%

AUUCUUCCUGCCCUGGCUCCAU [hsa-miR-6875-3p]
percent viability (MCF10A [1]): 29.5% | 5+ nucleoli phenotype percent effect (MCF10A [2]): -0.842% | one-nucleolus phenotype percent effect (MCF10A [3]): -4.69%

GACACUAGGCAUGUGAGUGAUU [hsa-miR-4704-5p]
percent viability (MCF10A [1]): 65% | 5+ nucleoli phenotype percent effect (MCF10A [2]): 0.429% | one-nucleolus phenotype percent effect (MCF10A [3]): -20.2%

GUUUAACCUUUUGCCUGUUGG [hsa-miR-552-5p]
percent viability (MCF10A [1]): 98.1% | 5+ nucleoli phenotype percent effect (MCF10A [2]): 32% | one-nucleolus phenotype percent effect (MCF10A [3]): -29.8%

GCUGGGAAGGCAAAGGGACGU [hsa-miR-204-3p]
percent viability (MCF10A [1]): 49.7% | 5+ nucleoli phenotype percent effect (MCF10A [2]): 24.5% | one-nucleolus phenotype percent effect (MCF10A [3]): -9.16%

UAUGUAAUAUGGUCCACAUCUU [hsa-miR-380-3p]
percent viability (MCF10A [1]): 90% | 5+ nucleoli phenotype percent effect (MCF10A [2]): -13.1% | one-nucleolus phenotype percent effect (MCF10A [3]): 0.458%

UGGGCUGCUGAGAAGGGGCA [hsa-miR-6829-5p]
percent viability (MCF10A [1]): 7.58% | 5+ nucleoli phenotype percent effect (MCF10A [2]): 2.03% | one-nucleolus phenotype percent effect (MCF10A [3]): 37.7%

ACAGUCUGCUGAGGUUGGAGC [hsa-miR-622]
percent viability (MCF10A [1]): 86.2% | 5+ nucleoli phenotype percent effect (MCF10A [2]): -4.39% | one-nucleolus phenotype percent effect (MCF10A [3]): 8.72%

AGAGGUAGUAGGUUGCAUAGUU [hsa-let-7d-5p]
percent viability (MCF10A [1]): 28.7% | 5+ nucleoli phenotype percent effect (MCF10A [2]): 30.8% | one-nucleolus phenotype percent effect (MCF10A [3]): -18.5%
